Measured values as given in patent US20120316071A1 (published 2012).
Changes are numbered by the printed parent chain. Names may count otherwise. One block for each binder: values may come before it.

Experiments:
[1] = biological target: T1, Recombinant Human DLL4 (R&D Systems Cat#1506-D4/CF) (human, UniProt Q9NR61 27-524); assay: ECL (MSD) binding assay, Fab on immobilized recombinant human DLL4
T1 construct: also called rHuman DLL4; delta-like protein 4

[2] = biological target: T1, Recombinant Human DLL4 (R&D Systems …); assay: ECL (MSD) multispot binding assay, Fab on immobilized recombinant human DLL4
[3] = biological target: T2, rHuman IGF-1 sR, CF (R&D Systems Cat#391-GR) (human, UniProt P08069 31-932); assay: ECL multispot (MSD) binding assay; antigen spotted on plate, Fab in solution, Ru-labelled anti-kappa detection;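 note: purified Fab in 1% BSA TBST incubated 1 h at 20 °C with shaking, signal compared with each well's blank, signal/blank ratio of 4 or above counted as binder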
T2 construct: Bought from R&D Systems as a soluble receptor; also called insulin-like growth factor-1 soluble receptor

[4] = biological target: T3, rHuman ErbB2/Fc Chimera, CF (R&D Systems Cat#1129-ER) (human, UniProt P04626 23-652); assay: as above
T3 construct: Bought from R&D Systems; also called human epidermal growth factor 2 receptor; Fc part of the bought chimera not given

[5] = biological target: T4, rHuman Erythropoietin R/Fc Chimera, CF (R&D Systems Cat#963-ER) (human, UniProt P19235 25-250); assay: as above
T4 construct: Bought from R&D Systems; also called EPO R; EPO R/Fc; Fc part of the bought chimera not given
T4 sequence (looked up): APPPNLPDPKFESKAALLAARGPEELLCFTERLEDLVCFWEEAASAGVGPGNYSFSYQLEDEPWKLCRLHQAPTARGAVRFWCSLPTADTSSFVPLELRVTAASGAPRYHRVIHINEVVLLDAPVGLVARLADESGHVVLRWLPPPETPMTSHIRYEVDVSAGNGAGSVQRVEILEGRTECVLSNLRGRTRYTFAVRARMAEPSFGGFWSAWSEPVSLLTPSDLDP

[6] = biological target: T5, rHuman HGF R/c-MET/Fc Chimera, CF (R&D Systems Cat#358-MT/CF) (human, UniProt P08581 25-932); assay: as above
T5 construct: Bought from R&D Systems; also called HGF R/Fc; hepatocyte growth factor receptor; Fc part of the bought chimera not given
T5 sequence (P08581 25-932, change not shown): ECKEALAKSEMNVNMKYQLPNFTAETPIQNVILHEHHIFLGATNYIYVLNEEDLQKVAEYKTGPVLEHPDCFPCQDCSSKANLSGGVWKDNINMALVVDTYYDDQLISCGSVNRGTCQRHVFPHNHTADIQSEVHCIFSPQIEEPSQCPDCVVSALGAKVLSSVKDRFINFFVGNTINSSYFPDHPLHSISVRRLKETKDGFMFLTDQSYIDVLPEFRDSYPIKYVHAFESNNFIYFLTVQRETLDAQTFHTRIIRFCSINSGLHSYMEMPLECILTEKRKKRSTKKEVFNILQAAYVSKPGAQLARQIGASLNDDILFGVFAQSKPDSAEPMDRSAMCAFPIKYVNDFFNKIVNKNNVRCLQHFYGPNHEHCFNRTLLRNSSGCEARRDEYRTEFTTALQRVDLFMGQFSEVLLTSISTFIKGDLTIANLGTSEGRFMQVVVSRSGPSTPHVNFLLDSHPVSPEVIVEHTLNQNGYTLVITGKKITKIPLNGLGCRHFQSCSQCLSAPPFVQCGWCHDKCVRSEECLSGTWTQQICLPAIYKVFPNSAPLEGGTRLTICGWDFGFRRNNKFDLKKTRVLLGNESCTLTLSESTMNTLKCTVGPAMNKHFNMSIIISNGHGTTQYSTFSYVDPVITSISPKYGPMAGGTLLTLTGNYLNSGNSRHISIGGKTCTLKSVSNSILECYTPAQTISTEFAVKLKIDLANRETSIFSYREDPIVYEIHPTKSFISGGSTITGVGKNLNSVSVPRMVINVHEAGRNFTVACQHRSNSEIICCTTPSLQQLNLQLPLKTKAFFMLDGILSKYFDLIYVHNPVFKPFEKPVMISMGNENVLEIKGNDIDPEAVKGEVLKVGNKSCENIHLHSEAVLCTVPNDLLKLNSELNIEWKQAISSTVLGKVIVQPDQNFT

[7] = biological target: T6, rHuman P-Cadherin/Fc Chimera, CF (R&D Systems Cat#861-PC) (human, UniProt P22223 108-654); assay: as above
T6 construct: Bought from R&D Systems; Fc part of the bought chimera not given

[8] = biological target: T7, rHuman Notch-1/Fc Chimera, CF (R&D Systems Cat#3647-TK) (human, UniProt P46531 19-526); assay: as above
T7 construct: Bought from R&D Systems; Fc part of the bought chimera not given

[9] = biological target: T8, rHuman CD44/Fc Chimera, CF (R&D Systems Cat#3660-CD) (human, UniProt P16070 21-220); assay: as above
T8 construct: Bought from R&D Systems; Fc part of the bought chimera not given

[10] = biological target: T9, rHuman EGF R/Fc Chimera, CF (R&D Systems Cat#344-ER) (human, UniProt P00533 25-645); assay: as above
T9 construct: Bought from R&D Systems; also called epidermal growth factor receptor; Fc part of the bought chimera not given

[11] = biological target: T10, Recombinant Human DLL4 (R&D Systems Cat#1506-D4/CF) (human, UniProt Q9NR61 27-524); assay: as above
T10 construct: Bought from R&D Systems; also called delta-like protein 4; rHuman DLL4

[12] = biological target: T11, Recombinant Human DLL4 (delta-like protein 4) (human, UniProt Q9NR61 27-524); assay: ELISA, DLL4 coated on plate, Fab in solution, absorbance at 450 nm
T11 construct: Bought recombinant protein (R&D Systems Cat#1506-D4/CF); also called rHuman DLL4; Delta-like 4

[13] = biological target: T11, Recombinant Human DLL4 (delta-like …); assay: ECL (MSD) multispot binding assay, DLL4 immobilized, Fab in solution
[14] = biological target: rHuman ErbB2/Fc Chimera (human, UniProt P04626 23-652); assay: ECL multispot (MSD) binding assay; antigen spotted on plate, Fab in solution;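 note: purified Fab bound for 1 h at 20 °C, detected with a TAG-labelled antibody, electrochemiluminescence compared with each well's blank, signal-to-blank ratio of at least 4 scored as hit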
[15] = biological target: rHuman IGF-1 sR (insulin-like growth factor-1 soluble receptor) (human, UniProt P08069 31-932); assay: as above
[16] = biological target: rHuman CD44/Fc Chimera (human, UniProt P16070 21-220); assay: as above
[17] = biological target: T12, rHuman HGF R/c-MET/Fc Chimera (human, UniProt P08581 25-932); assay: as above
T12 construct: also called HGF R/Fc
T12 sequence (P08581 25-932, change not shown): as above

[18] = biological target: T13, rHuman P-Cadherin/Fc Chimera (human, UniProt P22223 108-654); assay: as above
T13 construct: Bought from R&D Systems (Cat#861-PC)

[19] = biological target: rHuman EGF R/Fc Chimera (human, UniProt P00533 25-645); assay: as above
[20] = biological target: T14, rHuman Erythropoietin R/Fc Chimera (human, UniProt P19235 25-250); assay: as above
T14 construct: also called EPO R; EPO R/Fc
T14 sequence (looked up): T4 sequence (looked up)

[21] = biological target: T15, rHuman Notch-1/Fc Chimera (human, UniProt P46531 19-526); assay: as above
T15 construct: Bought from R&D Systems (Cat#3647-TK)

B1: Fab VH5-51_IGHD5-18*01>3_IGHJ4*01 G100K/G104T (KT) & V3-4_IGLJ1*01 (Fab, V domains shown)
VH: EVQLVQSGAEVKKPGESLKISCKGSGYSFTSYWIGWVRQMPGKGLEWMGIIYPGDSDTRYSPSFQGQVTISADKSISTAYLQWSSLKASDTAMYYCARRKYSYTYDYFDYWGQGTLVTVSS
VL: QTVVTQEPSFSVSPGGTVTLTCGLSSGSVSTSYYPSWYQQTPGQAPRTLIYSTNTRSSGVPDRFSGSILGNKAALTITGAQADDESDYYCVLYMGSGISYVFGTGTKVTVL
notes: Tested as Fab; Fabs were expressed in E. coli from plasmid A (heavy chain CH1, His6 and Flag tags) and plasmid E (lambda CL); also called H:KT & L:wt
ECL signal [1]: 588 | ECL Signal/Blank [2]: 49.2

B6: Fab VH1-46_IGHD6-6*01_IGHJ1*01 S102A/S103P/S104F/H111F (H:APFF) & L6_IGKJ1*01 S76E (Fab, V domains shown)
VH: QVQLVQSGAEVKKPGASVKVSCKASGYTFTSYYMHWVRQAPGQGLEWMGIINPSGGSTSYAQKFQGRVTMTRDTSTSTVYMELSSLRSEDTAVYYCAREEYAPFSAEYFQFWGQGTLVTVSS
VL: EIVLTQSPATLSLSPGERATLSCRASQSVSSYLAWYQQKPGQAPRLLIYDASNRATGIPARFSGSGSGTDFTLTIESLEPEDFAVYYCQQRSNWPPWTFGQGTKVEIKR
notes: Tested as Fab expressed in E. coli; VH was cloned into Plasmid A (CH1 constant region, His6 and Flag tags) and the kappa VL into Plasmid C (kappa CL)
ELISA (Signal-Noise) [12]: 0.36 | ECL Signal/Noise [13]: 218

B7: Fab VH1-46_IGHD6-6*01_IGHJ1*01 S102A/S103P/S104F/H111F (H:APFF) & L6_IGKJ1*01 S76P (Fab, V domains shown)
VH: B6 VH
VL: B6 VL with E76P
notes: as for B6
ELISA (Signal-Noise) [12]: 0.29 | ECL Signal/Noise [13]: 100

B9: Fab VH1-46_IGHD6-6*01_IGHJ1*01 S102A/S103P/S104F/H111F (APFF) & L6_IGKJ1*01 S92N (Fab, V domains shown)
VH: B6 VH
VL: B6 VL with E76S, S92N
notes: Tested as Fab (CH1 with His6/Flag tags from Plasmid A; kappa CL from Plasmid C); also called APFF / S92N
ECL signal [14]: 242 | ECL signal [15]: 312 | ECL signal [16]: 336 | ECL signal [17]: 243 | ECL signal [18]: 271 | ECL signal [19]: 293 | ECL signal [20]: 314 | ECL signal [21]: 407

B10: Fab VH1-46_IGHD6-6*01_IGHJ1*01 S102A/S103P/S104F/H111F (APFF) & L6_IGKJ1*01 S92M (Fab, V domains shown)
VH: B6 VH
VL: B6 VL with E76S, S92M
notes: Tested as Fab (CH1 with His6/Flag tags from Plasmid A; kappa CL from Plasmid C); also called APFF / S92M
ECL signal [14]: 301 | ECL signal [15]: 271 | ECL signal [16]: 304 | ECL signal [17]: 346 | ECL signal [18]: 328 | ECL signal [19]: 367 | ECL signal [20]: 340 | ECL signal [21]: 385

B12: Fab VH1-46_IGHD6-6*01_IGHJ1*01 S102A/S103P/S104F/H111F (H:APFF) & L6_IGKJ1*01 S76N (Fab, V domains shown)
VH: B6 VH
VL: B6 VL with E76N
notes: as for B6
ELISA (Signal-Noise) [12]: 0.28 | ECL Signal/Noise [13]: 118

B13: Fab VH1-46_IGHD6-6*01_IGHJ1*01 S102A/S103P/S104F/H111F (APFF) & L6_IGKJ1*01 S92V (Fab, V domains shown)
VH: B6 VH
VL: B6 VL with E76S, S92V
notes: Tested as Fab (CH1 with His6/Flag tags from Plasmid A; kappa CL from Plasmid C); also called APFF / S92V
ECL signal [14]: 246 | ECL signal [15]: 237 | ECL signal [16]: 331 | ECL signal [17]: 288 | ECL signal [18]: 390 | ECL signal [19]: 305 | ECL signal [20]: 368 | ECL signal [21]: 347

Further lines, results first:

ECL Signal/Blank [2]: 102
B2: Fab VH5-51_IGHD5-18*01>3_IGHJ4*01 G100K/G104T T58A & V3-4_IGLJ1*01 (Fab, V domains shown)
VH: B1 VH with T58A
VL: B1 VL
notes: Tested as Fab; CH1 with His6/Flag tags (plasmid A) and lambda CL (plasmid E) come from the expression vectors

ECL Signal/Blank [2]: 4.1
B3: Fab VH5-51_IGHD5-18*01>3_IGHJ4*01 G100K/G104T G54A & V3-4_IGLJ1*01 (Fab, V domains shown)
VH: B1 VH with G54A
VL: B1 VL
notes: as for B2

ECL Signal/Blank [2]: 55
B4: Fab VH5-51_IGHD5-18*01>3_IGHJ4*01 G100K/G104T S56A & V3-4_IGLJ1*01 (Fab, V domains shown)
VH: B1 VH with S56A
VL: B1 VL
notes: as for B2

ECL signal [3]: 377 | ECL signal [4]: 316 | ECL signal [5]: 477 | ECL signal [6]: 353 | ECL signal [7]: 477 | ECL signal [8]: 478 | ECL signal [9]: 497 | ECL signal [10]: 329 | ECL signal [11]: 181000
B5: Fab VH1-46_IGHD6-6*01_IGHJ1*01 S102A/S103P/S104F/H111F T28A & L6_IGKJ1*01 (Fab, V domains shown)
VH: B6 VH with T28A
VL: not shown
notes: Tested as a Fab made in E. coli; The heavy chain vector (Plasmid A) adds CH1 with His6 and Flag tags; The light chain vector (Plasmid C) adds kappa CL; also called APFF T28A

ECL signal [3]: 227 | ECL signal [4]: 298 | ECL signal [5]: 430 | ECL signal [6]: 248 | ECL signal [7]: 178 | ECL signal [8]: 334 | ECL signal [9]: 290 | ECL signal [10]: 281 | ECL signal [11]: 59500
B8: Fab VH1-46_IGHD6-6*01_IGHJ1*01 S102A/S103P/S104F/H111F Y33A & L6_IGKJ1*01 (Fab, V domains shown)
VH: B6 VH with Y33A
VL: not shown
notes: Tested as a Fab made in E. coli; The heavy chain vector (Plasmid A) adds CH1 with His6 and Flag tags; The light chain vector (Plasmid C) adds kappa CL; also called APFF Y33A

ELISA (Signal-Noise) [12]: 0.32 | ECL Signal/Noise [13]: 187
B11: Fab VH1-46_IGHD6-6*01_IGHJ1*01 S102A/S103P/S104F/H111F (H:APFF) & L6_IGKJ1*01 S76Q (Fab, V domains shown)
VH: B6 VH
VL: B6 VL with E76Q
notes: as for B6

ECL signal [3]: 343 | ECL signal [4]: 408 | ECL signal [5]: 479 | ECL signal [6]: 353 | ECL signal [7]: 337 | ECL signal [8]: 368 | ECL signal [9]: 396 | ECL signal [10]: 351 | ECL signal [11]: 178000
B14: Fab VH1-46_IGHD6-6*01_IGHJ1*01 S102A/S103P/S104F/H111F T30A & L6_IGKJ1*01 (Fab, V domains shown)
VH: B6 VH with T30A
VL: not shown
notes: Tested as a Fab made in E. coli; The heavy chain vector (Plasmid A) adds CH1 with His6 and Flag tags; The light chain vector (Plasmid C) adds kappa CL; also called APFF T30A
